# Experimental data from US20240124586A1 (WUXI BIOLOGICS IRELAND, published 2024).
# Like-named read-outs stand apart in the source and are kept apart here.
# T1: human CD19 on CD19+ B cell lines (Ramos, Raji) (human, UniProt P15391 20-556)
# T1 construct: whole, on cells; also called CD19+ Ramos cells; CD19+ Raji cells
# T1 sequence (looked up): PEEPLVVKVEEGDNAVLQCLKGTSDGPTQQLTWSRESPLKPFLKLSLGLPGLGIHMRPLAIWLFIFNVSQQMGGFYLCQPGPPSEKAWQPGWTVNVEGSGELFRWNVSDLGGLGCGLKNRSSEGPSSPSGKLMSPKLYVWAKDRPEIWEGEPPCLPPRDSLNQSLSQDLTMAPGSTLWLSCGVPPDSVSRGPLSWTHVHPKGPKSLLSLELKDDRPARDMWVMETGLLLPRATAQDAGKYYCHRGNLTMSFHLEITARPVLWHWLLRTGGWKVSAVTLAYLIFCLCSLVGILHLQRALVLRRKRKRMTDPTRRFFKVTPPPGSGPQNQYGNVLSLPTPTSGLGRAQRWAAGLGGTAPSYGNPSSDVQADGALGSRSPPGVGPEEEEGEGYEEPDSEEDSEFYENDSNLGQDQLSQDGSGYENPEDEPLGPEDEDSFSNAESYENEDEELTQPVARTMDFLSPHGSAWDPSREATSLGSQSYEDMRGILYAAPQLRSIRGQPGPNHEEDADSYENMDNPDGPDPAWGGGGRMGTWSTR
# B1: W3438-T3U4.F16-1.uIgG4.SP, bispecific trivalent anti-CD3 x CD19 (bispecific antibody)
# heavy 1: QVQLVQSGAEVKKPGSSVKVSCKASGFAFTDYYIHWVRQAPGQGLEWMGWISPGNVNTKYNENFKGRVTITADKSTSTAYMELSSLRSEDTAVYYCARDGYSLYYFDYWGQGTLVTVLEDLKNVFPPEVAVFEPSEAEISHTQKATLVCLATGFYPDHVELSWWVNGKEVHSGVCTDPQPLKEQPALQDSRYALSSRLRVSATFWQNPRNHFRCQVQFYGLSENDEWTQDRAKPVTQIVSAEAWGRYGPPCPPCPAPEFLGGPSVFLFPPKPKDTLMISRTPEVTCVVVDVSQEDPEVQFNWYVDGVEVHNAKTKPREEQFNSTYRVVSVLTVLHQDWLNGKEYKCKVSNKGLPSSIEKTISKAKGQPREPQVYTLPPCQEEMTKNQVSLWCLVKGFYPSDIAVEWESNGQPENNYKTTPPVLDSDGSFFLYSRLTVDKSRWQEGNVFSCSVMHEALHNHYTQKSLSLSLGK
# light 1: DIVMTQSPDSLAVSLGERATINCKSSQSLLNSRTRKNYLAWYQQKPGQPPKLLIYWASTRQSGVPDRFSGSGSGTDFTLTISSLQAEDVAVYYCTQSHTLRTFGGGTKVEIKPDIQNPDPAVYQLRDSKSSDKSVCLFTDFDSQTQVSQSKDSDVYITDKCVLDMRSMDFKSNSAVAWSQKSDFACANAFQNSIIPEDTFFPSPESS
# heavy 2: QMQLVQSGPEVKKPGTSVKVSCKASGYAFTSYNMYWVRQARGQRLEWIGYIDPYNGDTTYNQKFKGRVTITRDMSTSTAYMELSSLRSEDTAVYYCLTTAYAMDYWGQGTLVTVSSASTKGPSVFPLAPCSRSTSESTAALGCLVKDYFPEPVTVSWNSGALTSGVHTFPAVLQSSGLYSLSSVVTVPSSSLGTKTYTCNVDHKPSNTKVDKRVGGGGSGGGGSQMQLVQSGPEVKKPGTSVKVSCKASGYAFTSYNMYWVRQARGQRLEWIGYIDPYNGDTTYNQKFKGRVTITRDMSTSTAYMELSSLRSEDTAVYYCLTTAYAMDYWGQGTLVTVSSASTKGPSVFPLAPCSRSTSESTAALGCLVKDYFPEPVTVSWNSGALTSGVHTFPAVLQSSGLYSLSSVVTVPSSSLGTKTYTCNVDHKPSNTKVDKRVESKYGPPCPPCPAPEFLGGPSVFLFPPKPKDTLMISRTPEVTCVVVDVSQEDPEVQFNWYVDGVEVHNAKTKPREEQFNSTYRVVSVLTVLHQDWLNGKEYKCKVSNKGLPSSIEKTISKAKGQPREPQVCTLPPSQEEMTKNQVSLSCAVKGFYPSDIAVEWESNGQPENNYKTTPPVLDSDGSFFLVSRLTVDKSRWQEGNVFSCSVMHEALHNHYTQKSLSLSLGK
# light 2: DIQLTQSPSFLSASVGDRVTITCSASSTVNYMHWYQQKPGKAPKLLIYSTSNLASGVPSRFSGSGSGTEFTLTISSLQPEDFATYYCHQWSSYPYTFGQGTKLEIKRTVAAPSVFIFPPSDEQLKSGTASVVCLLNNFYPREAKVQWKVDNALQSGNSQESVTEQDSKDSTYSLSSTLTLSKADYEKHKVYACEVTHQGLSSPVTKSFNRGEC
# notes: also called F16-Design_2-QQQQ (IgG4)
# B2: W3162_1.154.8-z35-IgG1K (antibody, V domains shown)
# VH: QVQLVQSGAEVKKPGSSVKVSCKASGYTFTNYFMNWVRQAPGQGLEWMGRVDPEQGRADYAEKFKKRVTITADKSTSTAYMELSSLRSEDTAVYYCARRAMDNYGFAYWGQGTLVTVSS
# VL: EIVLTQSPDFQSVTPKEKVTITCSANSALSYMYWYQQKPDQSPKLWVHGTSNLASGVPSRFSGSGSGTDFTLTINSLEAEDAATYYCHHWSNTQWTFGGGTKVEIK
# notes: anti-CTLA-4 antibody, parent of the T5 arm; also called W3162_1.154.8-z35 (named T5)
# B3: anti-CD3 antibody T3 (wild type, IgG1) (antibody, V domains shown)
# VH: QVQLVQSGAEVKKPGSSVKVSCKASGFAFTDYYIHWVRQAPGQGLEWMGWISPGNVNTKYNENFKGRVTITADKSTSTAYMELSSLRSEDTAVYYCARDGYSLYYFDYWGQGTLVTVSS
# VL: DIVMTQSPDSLAVSLGERATINCKSSQSLLNSRTRKNYLAWYQQKPGQPPKLLIYWASTRQSGVPDRFSGSGSGTDFTLTISSLQAEDVAVYYCTQSHTLRTFGGGTKVEIK
# notes: Human IgG1; also called T3-IgG1; native antibody T3
# B4: anti-CD19 antibody U4 (wild type) (antibody, V domains shown)
# VH: QMQLVQSGPEVKKPGTSVKVSCKASGYAFTSYNMYWVRQARGQRLEWIGYIDPYNGDTTYNQKFKGRVTITRDMSTSTAYMELSSLRSEDTAVYYCLTTAYAMDYWGQGTLVTVSS
# VL: DIQLTQSPSFLSASVGDRVTITCSASSTVNYMHWYQQKPGKAPKLLIYSTSNLASGVPSRFSGSGSGTEFTLTISSLQPEDFATYYCHQWSSYPYTFGQGTKLEIKR
# notes: also called native U4; wild type antibody U4
# B5: T3-IgG4 (antibody, V domains shown)
# VH: B3 VH
# VL: B3 VL
# notes: m1 is the IgG1 form of the same antibody; also called wild type anti-CD3 antibody T3 in IgG4 format
# Legend:
# [1] = target: T1, human CD19 on CD19+ B cell lines …; test: FACS on CD19+ Ramos cells
# [2] = target: T1, human CD19 on CD19+ B cell lines …; test: flow cytometry on Ramos cells
# [3] = target: T1, human CD19 on CD19+ B cell lines …; test: cell-based or functional assay
# [4] = target: T2, human CD3 on CD3+ Jurkat cells (human, UniProt P07766 23-207; P09693 23-182; P04234 22-171); test: flow cytometry on Jurkat cells
# T2 construct: whole, on cells; also called CD3 positive Jurkat cells
# [5] = target: T3, cynomolgus CTLA-4 on engineered 293F cells (W316-293F.cynoPro1.F1.Pool) (cynomolgus); test: FACS binding to cynomolgus CTLA-4 engineered cells
# T3 construct: whole, on cells; also called cynomolgus CTLA-4 engineered cells
# Protocol: 4-fold titrated Abs with 1% BSA DPBS from 40 μg/ml to 0.00004 μg/ml were added to the cells. Plates were incubated at 4° C. for 1 hour. After wash, […] 1:150 diluted PE-labeled goat anti-human antibody (Jackson 109-115-098) was added to each well and the plates were incubated at 4° C. for 1 hour. The binding of the antibodies onto the cells was tested by flow cytometry and the mean fluorescence intensity (MFI) was analyzed by FlowJo.
# [6] = target: cynomolgus CTLA-4 protein (cynomolgus, UniProt G7PL88 36-161, Probably biotinylated for streptavidin-PE detection, as described for the human CTLA-4 reagent in paragraph 775; the letters cannot carry this.); test: FACS competition: blocks cynomolgus CTLA-4 protein binding to human CD80 engineered cells
# Protocol: (§1) Competitive FACS was used to test whether the antibodies could block human or cynomolgus CTLA-4 binding to hCD80 on cell surface. […] Then the mixtures of antibody and CTLA-4 were added to the cells and incubated for 1 hour at 4° C. The cells were washed two times with 200 μl FACS washing buffer (DPBS containing 1% BSA). Streptavidin PE (BD Pharmingen-554061) 1 to 600 diluted in FACS buffer was added to the cells and incubated at 4° C. for 1 hour. Additional washing steps were performed two times with 200 μL FACS washing buffer followed by centrifugation at 1500 rpm for 4 minutes at 4° C. Finally, the cells were resuspended in 100 μL FACS washing buffer and fluorescence values were measured by flow cytometry and analyzed by FlowJo.
# [7] = target: T4, biotinylated human CTLA-4.ECD.hFc (W316-hPro1.ECD.hFc.Biotin) (human, UniProt P16410 36-161, biotin-labelled (site not stated)); test: FACS competition: blocks biotinylated human CTLA-4.ECD.hFc binding to human CD80 engineered cells
# T4 construct: extracellular domain; In-house protein; also called hCTLA-4.ECD.hFc-Biotin; human CTLA-4 protein
# Protocol: as §1
# [8] = target: T2, human CD3 on CD3+ Jurkat cells; test: FACS on CD3+ Jurkat cells
# [9] = target: T2, human CD3 on CD3+ Jurkat cells; test: FACS on CD3+ Jurkat cells; remark: listed apart in the source
# [10] = target: T1, human CD19 on CD19+ B cell lines …; test: FACS on CD19+ Ramos cells; remark: listed apart in the source
# [11] = target: T2, human CD3 on CD3+ Jurkat cells; test: FACS on CD3+ Jurkat cells; remark: listed apart in the source
# T2 sequence (P07766 23-207, chain 1 of 3): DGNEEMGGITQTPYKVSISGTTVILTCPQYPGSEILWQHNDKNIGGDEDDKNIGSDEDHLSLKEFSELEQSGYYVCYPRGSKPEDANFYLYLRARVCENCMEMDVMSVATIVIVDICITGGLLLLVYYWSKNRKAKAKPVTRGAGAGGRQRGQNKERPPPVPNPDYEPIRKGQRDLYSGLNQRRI
# T2 sequence (P09693 23-182, chain 2 of 3): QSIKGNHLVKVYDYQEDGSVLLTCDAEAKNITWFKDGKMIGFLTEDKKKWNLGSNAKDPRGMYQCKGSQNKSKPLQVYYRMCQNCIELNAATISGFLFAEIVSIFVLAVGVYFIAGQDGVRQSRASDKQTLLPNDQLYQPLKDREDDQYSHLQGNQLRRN
# T2 sequence (P04234 22-171, chain 3 of 3): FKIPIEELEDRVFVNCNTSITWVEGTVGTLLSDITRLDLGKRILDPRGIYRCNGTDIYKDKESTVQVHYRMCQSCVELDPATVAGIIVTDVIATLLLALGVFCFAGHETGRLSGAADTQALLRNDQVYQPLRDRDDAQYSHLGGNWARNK
# cynomolgus CTLA-4 protein, sequence (G7PL88 entry or part of it limits assumed): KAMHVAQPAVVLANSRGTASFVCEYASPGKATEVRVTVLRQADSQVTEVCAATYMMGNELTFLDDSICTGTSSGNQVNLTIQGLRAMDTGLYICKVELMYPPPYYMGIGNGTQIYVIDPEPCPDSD
# T4 sequence (P16410 36-161): as the sequence (G7PL88 entry or part of it limits assumed) above, with N14S, T18I, M106L counted along it
binder,measurement,setting,value
B1,EC50 (read off the curve),[1],1 to 2 nM
same,EC50,[2],1.8 nM
same,EC50 of T-cell engaged malignant B cell killing,[3],0.0055 nM
same,"EC50 of cell lysis, CD8+ T cells and Raji cells, 4 hours",[3],3.2 nM
same,EC50,[4],19.3 nM
B2,EC50,[5],0.699 nM
same,Top(MFI),[5],10800 MFI
same,IC50,[6],1.47 nM
same,IC50,[7],0.594 nM
B3,EC50 (read off the curve),[8],~0.2 nM
same,EC50 (read off the curve),[9],~0.2 nM
B4,EC50 (read off the curve),[10],~0.5 nM
same,EC50 (read off the curve),[1],~0.3 nM
B5,EC50 (read off the curve),[11],~0.05 nM
